T1: human endothelin A receptor (human, UniProt P25101 21-427)
T1 construct: For the calcium flux assay it was co-expressed with aequorin in CHO-DHFR cells; also called hETAR; human ETAR
T1 sequence: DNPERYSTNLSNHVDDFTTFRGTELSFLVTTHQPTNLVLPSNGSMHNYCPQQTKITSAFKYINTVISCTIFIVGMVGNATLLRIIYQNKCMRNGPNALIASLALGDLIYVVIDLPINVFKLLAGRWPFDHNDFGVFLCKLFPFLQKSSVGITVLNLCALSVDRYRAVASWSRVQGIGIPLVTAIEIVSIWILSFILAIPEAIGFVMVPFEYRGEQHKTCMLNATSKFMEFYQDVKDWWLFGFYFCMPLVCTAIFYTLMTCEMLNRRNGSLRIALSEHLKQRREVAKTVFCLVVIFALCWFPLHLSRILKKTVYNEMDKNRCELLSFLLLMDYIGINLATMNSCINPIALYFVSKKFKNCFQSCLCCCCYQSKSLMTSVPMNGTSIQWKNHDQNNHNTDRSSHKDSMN


Columns and labels:
[1] = biological target: T1, human endothelin A receptor; experiment: FACS on CHO-DHFR-ETAR cells, CHO-DHFR- cells as negative control
[2] = biological target: T1, human endothelin A receptor; experiment: cell-based or functional assay

| binding result [1] | IC50, calcium flux assay (inhibition of human ETAR) [2] [nM] | Binder |
| --- | --- | --- |
| binds |  | ETAR antibody A-12 (antibody, V domains shown, Recombinant antibody; also called L12H12) VH: EVKLVESGGRLVQPGNSLRLSCATSGFTFSDYYMSWVRQTPGRALEWLSFIRNRANGYTTEYSASVKGRFTISRDNSQSILYLHMSTLRPEDSATYYCVRDSYHYGYFDVWGAGTTVTVSS VL: EIQMTQTPSSLSASLGDRVTITCSASQGINNYLNWYQQKPGGKTRLLIYYTSTLQSGVPSRFSGSGSGTHYSLTISNLEPEDIATYYCQQFSKLRTFGGGTRLEIKR |
|  | 87.8 | ETAR antibody A-9 (antibody, V domains shown) VH: EVQLQQPGGGLVQPGGSLTLSCATSGFTFSSYGMSWVRQTPAKRLELVATISTNGATANYPDSVKGRFTISRDNAKSTLYLQMRSLKSEDTAMYYCATEKGAMGYWGQGTSVTVSS VL: DVLMTQTPLSLPVSLGDQASISCRSSQNIVHSTGNTYLEWYLQKPGQSPKLLIYKVSNRFSGVPNRFRGSGSGTDFTLKITRVEAEDLGIYYCFQGSHFPFTFGSGTKLEIKR |
| binds |  | ETAR antibody A-7 (antibody, V domains shown, Recombinant antibody; also called L7H7) VH: EVHLVESGGGLVQPGGSLKLSCAASGFTFSTYGMSWVRQTPDKRLELVATINTNGGTTYYRDSVKGRFTISRDNAKNTLYLQMSSLKSDDTAMYYCARDYGAMDYWGQGTSVTVSS VL: DVLMTQTPLSLPVSLGDHASISCRSSQYIVHSTGTTYLEWYLQKPGQSPQLLIYKVSNRFSGVPDRFTGSGSGTDFTLRISRVEAEDLGVYFCFQGSHFPFTFGSGTKLEIKR |
| binds |  | ETAR antibody A-2 (antibody, V domains shown, Recombinant antibody; also called L2H2) VH: QIQLVQSGAELAKPGASVRMSCETSGYTFTSYWIHWIKERPGQGLEWIGYINPDTDYSEYNQKFKDKARLTADKSSTTAYMELNSLTFDDSAVYYCASAGYYFFDFWGQGTTLTVSS VL: DIQMTQSPASLSTSVGETVTITCRASENIYSYLAWYQQRQGKSPHLLVNNAKTLAEGVPSRFSGSGSGTHFSLRISGLQPEDFGSYYCQHHYGIPFTFGGGTKLSIKR |

Source: patent publication US20190134196A1 (GMAX BIOPHARM, published 2019)
